# Measurements from the Human Domainome abundance scans (Beltran et al. 2025).
# ± gives the uncertainty stated by the source.
# B1: Unconventional myosin-Ie, residues 1051 to 1108; numbered along this chain, Q12965 (parent)
# chain: PQVPQCKALYAYDAQDTDELSFNANDIIDIIKEDPSGWWTGRLRGKQGLFPNNYVTKI
# Variants of: B1
# Experiment: abundance fitness (aPCA) (normalised: wild type 0, dead -1); higher = more abundant; growth selection in yeast, the domain comes from the species named
# Conditions: Homo sapiens
row,Variant,abundance fitness
1,L20E,-0.807 ± 0.13
2,I28V,-0.472 ± 0.45
3,G41C,-0.813 ± 0.059
4,E19M,-0.055 ± 0.076
5,Y10V,-0.121 ± 0.04
6,N23F,-0.076 ± 0.03
7,K7L,-0.106 ± 0.052
8,I30W,-0.967 ± 0.14
9,K7M,-0.092 ± 0.053
10,T56M,0.023 ± 0.058
11,P51Q,-0.438 ± 0.14
12,I31S,-0.58 ± 0.05
13,W39Y,-0.074 ± 0.082
14,A8K,-0.902 ± 0.32
15,D13M,-0.16 ± 0.05
16,Y54I,-0.296 ± 0.12
17,K57G,-0.391 ± 0.047
18,F22I,-0.409 ± 0.073
19,C6L,-0.866 ± 0.069
20,P51K,-0.18 ± 0.094
21,C6I,-0.67 ± 0.46
22,L9H,-0.367 ± 0.073
23,I31T,-0.2 ± 0.032
24,D34R,-0.173 ± 0.053

row,Variant,abundance fitness
1,A14G,-0.173 ± 0.037
2,S21G,-0.358 ± 0.059
3,I27Y,-0.19 ± 0.042
4,I58F,-0.116 ± 0.084
5,Q47R,-0.099 ± 0.055
6,T40H,-0.284 ± 0.16
7,I27R,-0.374 ± 0.049
8,F50P,-0.896 ± 0.33
9,N52D,-0.195 ± 0.08
10,T56V,-0.074 ± 0.034
11,Q47W,-0.111 ± 0.093
12,F50L,-0.19 ± 0.058
13,I27G,-0.927 ± 0.062
14,F22K,-0.754 ± 0.18
15,Q2H,-0.208 ± 0.34
16,N52Q,-0.197 ± 0.096
17,N53F,0.071 ± 0.1
18,D26K,-1.07 ± 0.3
19,I58G,-0.456 ± 0.24
20,A8F,-0.619 ± 0.31
21,F50I,0.069 ± 0.076
22,T40A,-0.175 ± 0.068
23,V55W,-0.645 ± 0.066
24,L20K,-0.836 ± 0.13

row,Variant,abundance fitness
1,Y10F,-0.151 ± 0.069
2,L9T,-0.491 ± 0.05
3,D16F,-0.19 ± 0.057
4,I30Y,-1 ± 0.14
5,R44E,-0.319 ± 0.097
6,K7F,-0.267 ± 0.054
7,I30L,-0.077 ± 0.055
8,D26V,-0.855 ± 0.12
9,K32F,-0.373 ± 0.3
10,A14N,-0.452 ± 0.19
11,W39N,-0.352 ± 0.11
12,N25G,-0.046 ± 0.041
13,S21W,-0.559 ± 0.13
14,E33H,-0.758 ± 0.45
15,I30D,-0.628 ± 0.24
16,K32G,-0.097 ± 0.029
17,Q15E,-0.23 ± 0.087
18,D29N,-0.277 ± 0.098
19,A14P,-0.371 ± 0.042
20,K7W,-0.26 ± 0.066
21,L9Y,-0.701 ± 0.25
22,E33M,-0.02 ± 0.086
23,Q47D,-0.417 ± 0.16
24,Y12I,-0.966 ± 0.31

row,Variant,abundance fitness
1,G45W,-0.702 ± 0.17
2,W39A,-0.374 ± 0.071
3,Y12Q,-0.887 ± 0.081
4,F22E,-0.858 ± 0.21
5,E33W,-0.819 ± 0.21
6,G37K,-0.728 ± 0.082
7,T17N,-0.423 ± 0.14
8,Q2T,-0.155 ± 0.11
9,K7Y,-0.074 ± 0.045
10,E19I,-0.548 ± 0.22
11,T56F,-0.023 ± 0.062
12,G37P,-0.54 ± 0.095
13,I31F,-0.462 ± 0.091
14,K57E,-0.266 ± 0.068
15,S21K,-0.266 ± 0.079
16,Y10S,-0.166 ± 0.031
17,F50V,-0.208 ± 0.049
18,D26P,-0.981 ± 0.42
19,L9N,-0.232 ± 0.063
20,N52W,-0.053 ± 0.041
21,A8I,-1 ± 0.086
22,A14M,-0.42 ± 0.12
23,K57S,-0.323 ± 0.083
24,Y12H,-0.274 ± 0.12

row,Variant,abundance fitness
1,D34Q,-0.431 ± 0.092
2,G48W,-0.609 ± 0.49
3,I28L,0.237 ± 0.46
4,T17P,-0.273 ± 0.092
5,A11F,-0.388 ± 0.12
6,D29W,-0.312 ± 0.068
7,T17S,-0.077 ± 0.05
8,Q15S,-0.261 ± 0.083
9,L9E,-0.149 ± 0.059
10,Y12E,-0.396 ± 0.12
11,F50G,-0.826 ± 0.088
12,Q5M,-0.041 ± 0.074
13,Y12W,-0.15 ± 0.039
14,E33I,-0.185 ± 0.054
15,P1T,0.057 ± 0.05
16,I58M,0.015 ± 0.48
17,I31M,-0.051 ± 0.078
18,V55C,-0.197 ± 0.063
19,F50C,-0.94 ± 0.42
20,N53M,0.075 ± 0.072
21,F22N,-0.816 ± 0.28
22,A11D,0.102 ± 0.096
23,L43C,-0.267 ± 0.11
24,N52G,0.02 ± 0.032

row,Variant,abundance fitness
1,N52S,0.024 ± 0.048
2,I58V,-0.055 ± 0.039
3,I30T,-0.745 ± 0.16
4,A14W,-1.13 ± 0.31
5,I31E,-0.26 ± 0.055
6,D18L,-0.063 ± 0.049
7,K32R,-0.042 ± 0.037
8,L20N,-0.764 ± 0.35
9,K46L,-0.152 ± 0.066
10,L9D,-0.451 ± 0.078
11,E33N,-0.576 ± 0.049
12,K7S,-0.167 ± 0.055
13,N52T,-0.087 ± 0.042
14,D16I,-0.557 ± 0.16
15,Q15H,-0.28 ± 0.13
16,I31K,-0.478 ± 0.044
17,K7A,-0.137 ± 0.053
18,N23E,0.005 ± 0.041
19,G37M,-0.545 ± 0.12
20,K46C,-0.099 ± 0.051
21,D29V,-0.303 ± 0.053
22,Y10C,-0.14 ± 0.058
23,G45I,-0.639 ± 0.21
24,A8V,-0.714 ± 0.11

row,Variant,abundance fitness
1,T17M,-0.043 ± 0.043
2,K7P,-0.945 ± 0.064
3,Q2Y,-0.373 ± 0.22
4,A14R,-0.377 ± 0.035
5,Q2R,-0.317 ± 0.042
6,G48A,-0.171 ± 0.093
7,K57T,-0.365 ± 0.1
8,A24V,-0.05 ± 0.034
9,A24F,-0.106 ± 0.1
10,Q15C,-0.239 ± 0.11
11,S21A,-0.263 ± 0.057
12,I58L,-0.091 ± 0.078
13,D13H,-0.16 ± 0.057
14,Q5N,-0.062 ± 0.31
15,A14F,-0.782 ± 0.32
16,Y12S,-0.909 ± 0.087
17,D13S,-0.189 ± 0.055
18,Q5Y,-0.007 ± 0.13
19,I30F,-0.736 ± 0.33
20,Y10T,-0.218 ± 0.055
